The results in this text go back to article PMC4622719.

As a reminder, the koff is a measure of how fast the partners let go of each other. A lower koff goes with a long-lived complex. For orientation: Kd means the concentration at which binding is half-saturated. Low readings indicate higher affinity, high ones lower affinity. Broadly, the kon is the rate constant with which the complex forms. The low end stands for slow association, the high end for fast association.

Where two headings read alike, the source gives them in different places.

Assay [1] has as its target adalimumab (human). As to the kind of experiment: BLI. For orientation: BLI is a label-free optical method that tracks binding on a fibre tip over time.
The target in assay [2] is adalimumab (human). The assay can be described thus: BLI. The source holds these as a separate data set.
Assay [3] concerns the target human neonatal Fc receptor (human) (UniProt P55899). As to the kind of experiment: SPR. On the technique in general: SPR reads the build-up and loss of mass on a sensor chip optically.
UniProt P55899, sequence (P55899 24-297): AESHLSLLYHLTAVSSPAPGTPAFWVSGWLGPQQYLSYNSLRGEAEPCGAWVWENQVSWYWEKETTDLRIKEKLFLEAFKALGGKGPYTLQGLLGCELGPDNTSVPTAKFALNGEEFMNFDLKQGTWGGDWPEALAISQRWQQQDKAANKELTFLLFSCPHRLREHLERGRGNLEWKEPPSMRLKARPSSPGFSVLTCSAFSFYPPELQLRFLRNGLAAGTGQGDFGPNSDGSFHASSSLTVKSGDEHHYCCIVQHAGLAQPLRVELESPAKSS

In the case of “recombinant human tumor necrosis factor (from UniProt P01375 77-233) (ligand)”, the koff in the assay with adalimumab (human) [1] was determined as 4.81e-05 s⁻¹. In addition, in the assay with adalimumab (human) [2], the Kd is 4.6 pM, the koff is 5.5e-06 s⁻¹ and the kon stood at 1.32e+06 M⁻¹ s⁻¹.

In assay [3], adalimumab (antibody) returned a KD1 of 8.77 nM, a KD2 of 467 nM, a ka1 of 906000 M⁻¹ s⁻¹ and a ka2 of 362000 M⁻¹ s⁻¹. In assay [3], this substance came in with a kd1 of 0.0073 s⁻¹ and a kd2 of 0.141 s⁻¹.
